Source: article PMC10540216, “Activity Guided Azide-methyllysine Photo-trapping for Substrate Profiling of Lysine Demethylases” (Journal of the American Chemical Society, 2023)

Test system: KDM4A-I71AzF
Assay: CASI: photo-crosslinking with HEK293T cell extracts, StrepTactin enrichment and LC-MS/MS proteomics;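 further: lysates from HEK293T cells pretreated with a KDM4 inhibitor to raise proteome methylation, affinity-purified after ±UV, gel-resolved, trypsin-digested, with exclusive unique peptides per protein averaged per condition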
Type: binding, human
Conditions: sheet "Final results but with 0.01"

B1: CATA_HUMAN (protein, UniProt P04040 2-527, looked up)
Catalase: ADSRDPASDQMQHWKEQRAAQKADVLTTGAGNPVGDKLNVITVGPRGPLLVQDVVFTDEMAHFDRERIPERVVHAKGAGAFGYFEVTHDITKYSKAKVFEHIGKKTPIAVRFSTVAGESGSADTVRDPRGFAVKFYTEDGNWDLVGNNTPIFFIRDPILFPSFIHSQKRNPQTHLKDPDMVWDFWSLRPESLHQVSFLFSDRGIPDGHRHMNGYGSHTFKLVNANGEAVYCKFHYKTDQGIKNLSVEDAARLSQEDPDYGIRDLFNAIATGKYPSWTFYIQVMTFNQAETFPFNPFDLTKVWPHKDYPLIPVGKLVLNRNPVNYFAEVEQIAFDPSNMPPGIEASPDKMLQGRLFAYPDTHRHRLGPNYLHIPVNCPYRARVANYQRDGPMCMQDNQGGAPNYYPNSFGAPEQQPSALEHSIQYSGEVRRFNTANDDNVTQVRAFYVNVLNEEQRKRLCENIAGHLKDAQIFIQKKAVKNFTEVHPDYGSHIQALLDKYNAEKPKNAIHTFVQSGSHLAAREKANL
- Fold change (+UV/-UV): 2

B2: ODBA_HUMAN (protein, UniProt P12694 46-445, looked up)
2-oxoisovalerate …: SSLDDKPQFPGASAEFIDKLEFIQPNVISGIPIYRVMDRQGQIINPSEDPHLPKEKVLKLYKSMTLLNTMDRILYESQRQGRISFYMTNYGEEGTHVGSAAALDNTDLVFGQYREAGVLMYRDYPLELFMAQCYGNISDLGKGRQMPVHYGCKERHFVTISSPLATQIPQAVGAAYAAKRANANRVVICYFGEGAASEGDAHAGFNFAATLECPIIFFCRNNGYAISTPTSEQYRGDGIAARGPGYGIMSIRVDGNDVFAVYNATKEARRRAVAENQPFLIEAMTYRIGHHSTSDDSSAYRSVDEVNYWDKQDHPISRLRHYLLSQGWWDEEQEKAWRKQSRRKVMEAFEQAERKPKPNPNLLFSDVYQEMPAQLRKQQESLARHLQTYGEHYPLDHFDK
- Fold change (+UV/-UV): 1

B3: ASNS_HUMAN (protein, UniProt P08243 2-561, looked up)
Asparagine synthetase …: CGIWALFGSDDCLSVQCLSAMKIAHRGPDAFRFENVNGYTNCCFGFHRLAVVDPLFGMQPIRVKKYPYLWLCYNGEIYNHKKMQQHFEFEYQTKVDGEIILHLYDKGGIEQTICMLDGVFAFVLLDTANKKVFLGRDTYGVRPLFKAMTEDGFLAVCSEAKGLVTLKHSATPFLKVEPFLPGHYEVLDLKPNGKVASVEMVKYHHCRDVPLHALYDNVEKLFPGFEIETVKNNLRILFNNAVKKRLMTDRRIGCLLSGGLDSSLVAATLLKQLKEAQVQYPLQTFAIGMEDSPDLLAARKVADHIGSEHYEVLFNSEEGIQALDEVIFSLETYDITTVRASVGMYLISKYIRKNTDSVVIFSGEGSDELTQGYIYFHKAPSPEKAEEESERLLRELYLFDVLRADRTTAAHGLELRVPFLDHRFSSYYLSLPPEMRIPKNGIEKHLLRETFEDSNLIPKEILWRPKEAFSDGITSVKNSWFKILQEYVEHQVDDAMMANAAQKFPFNTPKTKEGYYYRQVFERHYPGRADWLSHYWMPKWINATDPSARTLTHYKSAVKA
- Fold change (+UV/-UV): 2

B4: ERP44_HUMAN (protein, UniProt Q9BS26 30-406, looked up)
Endoplasmic reticulum …: EITSLDTENIDEILNNADVALVNFYADWCRFSQMLHPIFEEASDVIKEEFPNENQVVFARVDCDQHSDIAQRYRISKYPTLKLFRNGMMMKREYRGQRSVKALADYIRQQKSDPIQEIRDLAEITTLDRSKRNIIGYFEQKDSDNYRVFERVANILHDDCAFLSAFGDVSKPERYSGDNIIYKPPGHSAPDMVYLGAMTNFDVTYNWIQDKCVPLVREITFENGEELTEEGLPFLILFHMKEDTESLEIFQNEVARQLISEKGTINFLHADCDKFRHPLLHIQKTPADCPVIAIDSFRHMYVFGDFKDVLIPGKLKQFVFDLHSGKLHREFHHGPDPTDTAPGEQAQDVASSPPESSFQKLAPSEYRYTLLRDRDEL
- Fold change (+UV/-UV): 0.5

B5: PDIP3_HUMAN (protein, UniProt Q9BY77 2-421, looked up)
Polymerase delta-interacting …: ADISLDELIRKRGAAAKGRLNARPGVGGVRSRVGIQQGLLSQSTRTATFQQRFDARQKIGLSDARLKLGVKDAREKLLQKDARFRIKGKVQDAREMLNSRKQQTTVPQKPRQVADAREKISLKRSSPAAFINPPIGTVTPALKLTKTIQVPQQKAMAPLHPHPAGMRINVVNNHQAKQNLYDLDEDDDGIASVPTKQMKFAASGGFLHHMAGLSSSKLSMSKALPLTKVVQNDAYTAPALPSSIRTKALTNMSRTLVNKEEPPKELPAAEPVLSPLEGTKMTVNNLHPRVTEEDIVELFCVCGALKRARLVHPGVAEVVFVKKDDAITAYKKYNNRCLDGQPMKCNLHMNGNVITSDQPILLRLSDSPSMKKESELPRRVNSASSSNPPAEVDPDTILKALFKSSGASVTTQPTEFKIKL
- Fold change (+UV/-UV): 1

B6: CH60_HUMAN (protein, UniProt P10809 27-573, looked up)
60 kDa heat shock protein, …: AKDVKFGADARALMLQGVDLLADAVAVTMGPKGRTVIIEQSWGSPKVTKDGVTVAKSIDLKDKYKNIGAKLVQDVANNTNEEAGDGTTTATVLARSIAKEGFEKISKGANPVEIRRGVMLAVDAVIAELKKQSKPVTTPEEIAQVATISANGDKEIGNIISDAMKKVGRKGVITVKDGKTLNDELEIIEGMKFDRGYISPYFINTSKGQKCEFQDAYVLLSEKKISSIQSIVPALEIANAHRKPLVIIAEDVDGEALSTLVLNRLKVGLQVVAVKAPGFGDNRKNQLKDMAIATGGAVFGEEGLTLNLEDVQPHDLGKVGEVIVTKDDAMLLKGKGDKAQIEKRIQEIIEQLDVTTSEYEKEKLNERLAKLSDGVAVLKVGGTSDVEVNEKKDRVTDALNATRAAVEEGIVLGGGCALLRCIPALDSLTPANEDQKIGIEIIKRTLKIPAMTIAKNAGVEGSLIVEKIMQSSSEVGYDAMAGDFVNMVEKGIIDPTKVVRTALLDAAGVASLLTTAEVVVTEIPKEEKDPGMGAMGGMGGGMGGGMF
- Fold change (+UV/-UV): 1.043

B7: TCPD_HUMAN (protein, UniProt P50991 2-539, looked up)
T-complex protein 1 subunit …: PENVAPRSGATAGAAGGRGKGAYQDRDKPAQIRFSNISAAKAVADAIRTSLGPKGMDKMIQDGKGDVTITNDGATILKQMQVLHPAARMLVELSKAQDIEAGDGTTSVVIIAGSLLDSCTKLLQKGIHPTIISESFQKALEKGIEILTDMSRPVELSDRETLLNSATTSLNSKVVSQYSSLLSPMSVNAVMKVIDPATATSVDLRDIKIVKKLGGTIDDCELVEGLVLTQKVSNSGITRVEKAKIGLIQFCLSAPKTDMDNQIVVSDYAQMDRVLREERAYILNLVKQIKKTGCNVLLIQKSILRDALSDLALHFLNKMKIMVIKDIEREDIEFICKTIGTKPVAHIDQFTADMLGSAELAEEVNLNGSGKLLKITGCASPGKTVTIVVRGSNKLVIEEAERSIHDALCVIRCLVKKRALIAGGGAPEIELALRLTEYSRTLSGMESYCVRAFADAMEVIPSTLAENAGLNPISTVTELRNRHAQGEKTAGINVRKGGISNILEELVVQPLLVSVSALTLATETVRSILKIDDVVNTR
- Fold change (+UV/-UV): 0

B8: LAP2A_HUMAN (protein, UniProt P42166 2-694, looked up)
Lamina-associated polypeptide …: PEFLEDPSVLTKDKLKSELVANNVTLPAGEQRKDVYVQLYLQHLTARNRPPLPAGTNSKGPPDFSSDEEREPTPVLGSGAAAAGRSRAAVGRKATKKTDKPRQEDKDDLDVTELTNEDLLDQLVKYGVNPGPIVGTTRKLYEKKLLKLREQGTESRSSTPLPTISSSAENTRQNGSNDSDRYSDNEEGKKKEHKKVKSTRDIVPFSELGTTPSGGGFFQGISFPEISTRPPLGSTELQAAKKVHTSKGDLPREPLVATNLPGRGQLQKLASERNLFISCKSSHDRCLEKSSSSSSQPEHSAMLVSTAASPSLIKETTTGYYKDIVENICGREKSGIQPLCPERSHISDQSPLSSKRKALEESESSQLISPPLAQAIRDYVNSLLVQGGVGSLPGTSNSMPPLDVENIQKRIDQSKFQETEFLSPPRKVPRLSEKSVEERDSGSFVAFQNIPGSELMSSFAKTVVSHSLTTLGLEVAKQSQHDKIDASELSFPFHESILKVIEEEWQQVDRQLPSLACKYPVSSREATQILSVPKVDDEILGFISEATPLGGIQAASTESCNQQLDLALCRAYEAAASALQIATHTAFVAKAMQADISQAAQILSSDPSRTHQALGILSKTYDAASYICEAAFDEVKMAAHTMGNATVGRRYLWLKDCKINLASKNKLASTPFKGGTLFGGEVCKVIKKRGNKH
- Fold change (+UV/-UV): 0

B9: K2C1B_HUMAN (protein, UniProt Q7Z794 1-578, looked up)
Keratin, type II cytoskeletal …: MSHQFSSQSAFSSMSRRVYSTSSSAGSGGGSPAVGSVCYARGRCGGGGYGIHGRGFGSRSLYNLGGSRSISINLMGRSTSGFCQGGGVGGFGGGRGFGVGSTGAGGFGGGGFGGAGFGTSNFGLGGFGPYCPPGGIQEVTINQSLLEPLHLEVDPEIQRIKTQEREQIMVLNNKFASFIDKVRFLEQQNQVLQTKWELLQQVNTSTGTNNLEPLLENYIGDLRRQVDLLSAEQMRQNAEVRSMQDVVEDYKSKYEDEINKRTGSENDFVVLKKDVDAAYVSKVDLESRVDTLTGEVNFLKYLFLTELSQVQTHISDTNVILSMDNNRSLDLDSIIDAVRTQYELIAQRSKDEAEALYQTKYQELQITAGRHGDDLKNSKMEIAELNRTVQRLQAEISNVKKQIEQMQSLISDAEERGEQALQDAWQKLQDLEEALQQSKEELARLLRDYQAMLGVKLSLDVEIATYRQLLEGEESRMSGELQSHVSISVQNSQVSVNGGAGGGGSYGSGGYGGGSGGGYGGGRSYRGGGARGRSGGGYGSGCGGGGGSYGGSGRSGRGSSRVQIIQTSTNTSHRRILE
- Fold change (+UV/-UV): 4

B10: PSPC1_HUMAN (protein, UniProt Q8WXF1 1-523, looked up)
Paraspeckle component 1: MMLRGNLKQVRIEKNPARLRALESAVGESEPAAAAAMALALAGEPAPPAPAPPEDHPDEEMGFTIDIKSFLKPGEKTYTQRCRLFVGNLPTDITEEDFKRLFERYGEPSEVFINRDRGFGFIRLESRTLAEIAKAELDGTILKSRPLRIRFATHGAALTVKNLSPVVSNELLEQAFSQFGPVEKAVVVVDDRGRATGKGFVEFAAKPPARKALERCGDGAFLLTTTPRPVIVEPMEQFDDEDGLPEKLMQKTQQYHKEREQPPRFAQPGTFEFEYASRWKALDEMEKQQREQVDRNIREAKEKLEAEMEAARHEHQLMLMRQDLMRRQEELRRLEELRNQELQKRKQIQLRHEEEHRRREEEMIRHREQEELRRQQEGFKPNYMENREQEMRMGDMGPRGAINMGDAFSPAPAGNQGPPPMMGMNMNNRATIPGPPMGPGPAMGPEGAANMGTPMMPDNGAVHNDRFPQGPPSQMGSPMGSRTGSETPQAPMSGVGPVSGGPGGFGRGSQGGNFEGPNKRRRY
- Fold change (+UV/-UV): 1.667

B11: SNW1_HUMAN (protein, UniProt Q13573 2-536, looked up)
SNW domain-containing protein …: ALTSFLPAPTQLSQDQLEAEEKARSQRSRQTSLVSSRREPPPYGYRKGWIPRLLEDFGDGGAFPEIHVAQYPLDMGRKKKMSNALAIQVDSEGKIKYDAIARQGQSKDKVIYSKYTDLVPKEVMNADDPDLQRPDEEAIKEITEKTRVALEKSVSQKVAAAMPVRAADKLAPAQYIRYTPSQQGVAFNSGAKQRVIRMVEMQKDPMEPPRFKINKKIPRGPPSPPAPVMHSPSRKMTVKEQQEWKIPPCISNWKNAKGYTIPLDKRLAADGRGLQTVHINENFAKLAEALYIADRKAREAVEMRAQVERKMAQKEKEKHEEKLREMAQKARERRAGIKTHVEKEDGEARERDEIRHDRRKERQHDRNLSRAAPDKRSKLQRNENRDISEVIALGVPNPRTSNEVQYDQRLFNQSKGMDSGFAGGEDEIYNVYDQAWRGGKDMAQSIYRPSKNLDKDMYGDDLEARIKTNRFVPDKEFSGSDRRQRGREGPVQFEEDPFGLDKFLEEAKQHGGSKRPSDSSRPKEHEHEGKKRRKE
- Fold change (+UV/-UV): 2
